Source: the supplement of paper PMC11246515
± gives the standard deviation of the averaged measurements.

Assay: total protein half-life in vivo (active degradation + dilution); higher = more stable protein
[1] = E. coli NCM3722 delta-clpP delta-lon delta-hslV, growth: N-lim chemostat, doubling time 6 h
[2] = E. coli NCM3722 delta-clpP, growth: N-lim chemostat, doubling time 6 h
[3] = E. coli NCM3722 delta-lon, growth: N-lim chemostat, doubling time 6 h
[4] = E. coli NCM3722 delta-smpB, growth: N-lim chemostat, doubling time 6 h
[5] = wild type E. coli NCM3722, growth: C-lim chemostat, doubling time 3 h
[6] = wild type E. coli NCM3722, growth: C-lim chemostat, doubling time 6 h
[7] = wild type E. coli NCM3722, growth: C-lim chemostat, doubling time 12 h
[8] = wild type E. coli NCM3722, growth: N-lim chemostat, doubling time 6 h
[9] = wild type E. coli NCM3722, growth: N-lim chemostat, doubling time 12 h
[10] = wild type E. coli NCM3722, growth: P-lim chemostat, doubling time 6 h
[11] = wild type E. coli NCM3722, growth: P-lim chemostat, doubling time 12 h
[12] = E. coli NCM3722 delta-hslV, growth: N-lim chemostat, doubling time 6 h

Sequence | total protein half-life in vivo [1] [h] | total protein half-life in vivo [2] [h] | total protein half-life in vivo [3] [h] | total protein half-life in vivo [4] [h] | total protein half-life in vivo [5] [h] | total protein half-life in vivo [6] [h] | total protein half-life in vivo [7] [h] | total protein half-life in vivo [8] [h] | total protein half-life in vivo [9] [h] | total protein half-life in vivo [10] [h] | total protein half-life in vivo [11] [h] | total protein half-life in vivo [12] [h]
MALLDFFLSRKKNTANIAKERLQIIVAERRRSDAEPHYLPQLRKDILEVICKYVQIDPEMVTVQLEQKDGDISILELNVTLPEAEELK [P0A734] | 5.76 ± 0.51 | 4.57 ± 0.13 | 3.791 ± 0.018 | 4.06 ± 0.14 | 2.736 ± 0.016 | 4.59 ± 0.27 | 6.36 ± 0.066 | 3.626 ± 0.022 | 6.22 ± 0.13 | 4.14 ± 1.5 | 8.17 ± 0.36 | 
MALLEICCYSMECALTAQQNGADRVELCAAPKEGGLTPSLGVLKSVRQRVTIPVHPIIRPRGGDFCYSDGEFAAILEDVRTVRELGFPGLVTGVLDVDGNVDMPRMEKIMAAAGPLAVTFHRAFDMCANPLYTLNNLAELGIARVLTSGQKSDALQGLSKIMELIAHRDAPIIMAGAGVRAENLHHFLDAGVLEVHSSAGAWQASPMRYRNQGLSMSSDEHADEYSRYIVDGAAVAEMKGIIERHQAK | 5.29 ± 1.1 | 5.31 ± 1.4 | 4.73 ± 0.25 | 4.47 ± 0.33 | 3.26 ± 0.64 | 6.29 ± 0.61 | 9.735 ± 0.081 | 4.35 ± 0.53 | 6.84 ± 0.21 | 5.85 ± 0.37 | 11.8 ± 1.1 | 5.99 ± 2.8
MALLNVDKLSVHFGDESAPFRAVDRISYSVKQGEVVGIVGESGSGKSVSSLAIMGLIDYPGRVMAEKLEFNGQDLQRISEKERRNLVGAEVAMIFQDPMTSLNPCYTVGFQIMEAIKVHQGGNKSTRRQRAIDLLNQVGIPDPASRLDVYPHQLSGGMSQRVMIAMAIACRPKLLIADEPTTALDVTIQAQIIELLLELQQKENMALVLITHDLALVAEAAHKIIVMYAGQVVETGDAHAIFHAPRHPYTQALLRALPEFAQDKERLASLPGVVPGKYDRPNGCLLNPRCPYATDRCRAEEPALNMLADGRQSKCHYPLDDAGRPTL [P0AAG0] | 6.72 ± 1.2 | 6.26 ± 0.28 | 7.31 ± 0.78 | 6.33 ± 0.16 | 3.12 ± 0.29 | 6.95 ± 0.84 | 12 ± 0.99 | 5.94 ± 0.23 | 12.6 ± 0.25 | 6.27 ± 0.38 | 13.3 ± 1.2 | 6.21 ± 0.75
MALLPDKEKLLRNFLRCANWEEKYLYIIELGQRLPELRDEDRSPQNSIQGCQSQVWIVMRQNAQGIIELQGDSDAAIVKGLIAVVFILYDQMTPQDIVNFDVRPWFEKMALTQHLTPSRSQGLEAMIRAIRAKAAALS | 4.3 ± 0.53 | 3.71 ± 0.31 | 5.07 ± 1.1 | 4.012 ± 0.015 | 3.39 | 4.57 ± 0.48 | 9.46 ± 0.25 | 3.509 ± 0.018 | 5.75 ± 0.11 | 4.85 ± 0.13 | 10.1 ± 1.2 | 
MALNTPQITPTKKITVRAIGEELPRGDYQRCPQCDMLFSLPEINSHQSAYCPRCQAKIRDGRDWSLTRLAAMAFTMLLLMPFAWGEPLLHIWLLGIRIDANVMQGIWQMTKQGDAITGSMVFFCVIGAPLILVTSIAYLWFGNRLGMNLRPVLLMLERLKEWVMLDIYLVGIGVASIKVQDYAHIQAGVGLFSFVALVILTTVTLSHLNVEELWERFYPQRPATRRDEKLRVCLGCHFTGYPDQRGRCPRCHIPLRLRRRHSLQKCWAALLASIVLLLPANLLPISIIYLNGGRQEDTILSGIMSLASSNIAVAGIVFIASILVPFTKVIVMFTLLLSIHFKCQQGLRTRILLLRMVTWIGRWSMLDLFVISLTMSLINRDQILAFTMGPAAFYFGAAVILTILAVEWLDSRLLWDAHESGNARFDD [P0AD03] |  | 3.28 | 4.34 | 4.47 |  |  |  | 4.43 |  | 3.99 | 6.67 ± 0.85 | 
MALPILLDCDPGHDDAIAIVLALASPELDVKAITSSAGNQTPEKTLRNVLRMLTLLNRTDIPVAGGAVKPLMRELIIADNVHGESGLDGPALPEPTFAPQNCTAVELMAKTLRESAEPVTIVSTGPQTNVALLLNSHPELHSKIARIVIMGGAMGLGNWTPAAEFNIYVDPEAAEIVFQSGIPVVMAGLDVTHKAQIHVEDTERFRAIGNPVSTIVAELLDFFLEYHKDEKWGFVGAPLHDPCTIAWLLKPELFTSVERWVGVETQGKYTQGMTVVDYYYLTGNKPNATVMVDVDRQGFVDLLADRLKFYA | 4.982 ± 0.041 | 4.24 ± 0.14 | 4.291 ± 0.039 | 4.236 ± 0.027 | 3.02 ± 0.045 | 5.85 ± 0.58 | 10.5 ± 0.72 | 4.76 ± 0.19 | 7.25 ± 0.29 | 5.5168 ± 0.0052 | 11.3 ± 0.33 | 4.66 ± 1
MALPRITQKEMTEREQRELKTLLDRARIAHGRVLTNSETNSIKKDYIDKLMVEREAEAKKARQLKKKQAYKPDPEASFSWSANTSTRGRR | 5.58 ± 1 |  | 1.63 | 2.02 |  | 1.65 | 2.08 |  | 2.87 ± 0.66 |  |  | 1.79 ± 0.25
MALTTISPHDAQELIARGAKLIDIRDADEYLREHIPEADLAPLSVLEQSGLPAKLRHEQIIFHCQAGKRTSNNADKLAAIAAPAEIFLLEDGIDGWKKAGLPVAVNKSQPLPLMRQVQIAAGGLILIGVVLGYTVNSGFFLLSGFVGAGLLFAGISGFCGMARLLDKMPWNQRA | 4.3 ± 0.19 | 4.2 ± 0.14 | 4.74 ± 0.82 | 5.91 ± 1.4 | 2.61 ± 0.23 | 6.01 ± 1.2 | 8.96 ± 2.1 | 4.58 ± 0.2 | 8.75 ± 0.24 | 5.266 ± 0.016 | 10.3 ± 0.39 | 4.71 ± 0.24
